Drawing on paper PMC4970744, this text covers reduction in binding against the HPV-16 peptide for one molecule.

In this assay the target is HPV-16Q150A peptide (Human papillomavirus type 16). The assay can be described thus: affinity purification with mass spectrometry; biotinylated peptide (500 ug) on streptavidin magnetic sepharose beads; pre-cleared HaCaT cell extract, 2 h at 4°C; lysis buffer 50 mM HEPES pH 7.4, 150 mM NaCl, 1 mM MgCl2, 1% Triton X-100; trypsin digest and mass spectroscopy; pooled from at least two pull-downs.

B1: ZO-2 (natural protein)
chain: MPVRGDRGFPPRRELSGWLRAPGMEELIWEQYTVTLQKDSKRGFGIAVSGGRDNPHFENGETSIVISDVLPGGPADGLLQENDRVVMVNGTPMEDVLHSFAVQQLRKSGKVAAIVVKRPRKVQVAALQASPPLDQDDRAFEVMDEFDGRSFRSGYSERSRLNSHGGRSRSWEDSPERGRPHERARSRERDLSRDRSRGRSLERGLDQDHARTRDRSRGRSLERGLDHDFGPSRDRDRDRSRGRSIDQDYERAYHRAYDPDYERAYSPEYRRGARHDARSRGPRSRSREHPHSRSPSPEPRGRPGPIGVLLMKSRANEEYGLRLGSQIFVKEMTRTGLATKDGNLHEGDIILKINGTVTENMSLTDARKLIEKSRGKLQLVVLRDSQQTLINIPSLNDSDSEIEDISEIESNRSFSPEERRHQYSDYDYHSSSEKLKERPSSREDTPSRLSRMGATPTPFKSTGDIAGTVVPETNKEPRYQEDPPAPQPKAAPRTFLRPSPEDEAIYGPNTKMVRFKKGDSVGLRLAGGNDVGIFVAGIQEGTSAEQEGLQEGDQILKVNTQDFRGLVREDAVLYLLEIPKGEMVTILAQSRADVYRDILACGRGDSFFIRSHFECEKETPQSLAFTRGEVFRVVDTLYDGKLGNWLAVRIGNELEKGLIPNKSRAEQMASVQNAQRDNAGDRADFWRMRGQRSGVKKNLRKSREDLTAVVSVSTKFPAYERVLLREAGFKRPVVLFGPIADIAMEKLANELPDWFQTAKTEPKDAGSEKSTGVVRLNTVRQIIEQDKHALLDVTPKAVDLLNYTQWFPIVIFFNPDSRQGVKTMRQRLNPTSNKSSRKLFDQANKLKKTCAHLFTATINLNSANDSWFGSLKDTIQHQQGEAVWVSEGKMEGMDDDPEDRMSYLTAMGADYLSCDSRLISDFEDTDGEGGAYTDNELDEPAEEPLVSSITRSSEPVQHEESIRKPSPEPRAQMRRAASSDQLRDNSPPPAFKPEPPKAKTQNKEESYDFSKSYEYKSNPSAVAGNETPGASTKGYPPPVAAKPTFGRSILKPSTPIPPQEGEEVGESSEEQDNAPKSVLGKVKIFEKMDHKARLQRMQELQEAQNARIEIAQKHPDIYAVPIKTHKPDPGTPQHTSSRPPEPQKAPSRPYQDTRGSYGSDAEEEEYRQQLSEHSKRGYYGQSARYRDTEL
B1 yielded a reduction in binding against the HPV-16 peptide of 25%.
